Measurements as given in patent US20070142277A1.

Biological target: endogenously expressed APP isoforms in SH-SY5Y cells (human) (UniProt P05067)
Test: cell-based or functional assay

Chain of endogenously expressed APP isoforms in SH-SY5Y cells (human) (P05067 18-770): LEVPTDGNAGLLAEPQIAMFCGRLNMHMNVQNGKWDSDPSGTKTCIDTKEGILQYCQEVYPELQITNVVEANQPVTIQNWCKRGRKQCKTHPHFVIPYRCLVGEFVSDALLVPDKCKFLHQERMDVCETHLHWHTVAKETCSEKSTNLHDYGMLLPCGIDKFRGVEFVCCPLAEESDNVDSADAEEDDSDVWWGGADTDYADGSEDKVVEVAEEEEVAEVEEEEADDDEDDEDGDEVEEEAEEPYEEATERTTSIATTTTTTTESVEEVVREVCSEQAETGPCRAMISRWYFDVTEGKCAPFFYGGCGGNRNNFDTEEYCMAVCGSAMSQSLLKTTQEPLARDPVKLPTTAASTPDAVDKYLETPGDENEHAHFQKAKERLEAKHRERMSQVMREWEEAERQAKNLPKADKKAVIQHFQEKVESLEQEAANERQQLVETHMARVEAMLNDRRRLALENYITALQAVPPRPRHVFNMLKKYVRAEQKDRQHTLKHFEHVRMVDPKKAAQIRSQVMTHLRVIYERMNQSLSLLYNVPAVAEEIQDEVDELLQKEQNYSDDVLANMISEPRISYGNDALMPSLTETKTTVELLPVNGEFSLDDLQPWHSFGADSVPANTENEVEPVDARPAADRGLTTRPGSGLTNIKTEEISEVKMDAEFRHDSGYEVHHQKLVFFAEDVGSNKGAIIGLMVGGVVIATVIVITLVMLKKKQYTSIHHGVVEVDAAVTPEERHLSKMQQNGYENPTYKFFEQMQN

| Substance | Aβ release (% of control), Aβ1-40 ELISA of conditioned medium of transfected SH-SY5Y cells | Aβ1-40 release, expressed as the percentage of control (cells transfected with the empty vector DNA) |
| --- | --- | --- |
| BACE501 (from UniProt P56817 46-501) (enzyme) | 193 % of control |  |
| BACE455 (from UniProt P56817 46-501) (enzyme) | 195 % of control | 200 % of control |
